# Laboratory results: patent US20120115870A1, “CONTROL OF INTRAOCULAR PRESSURE USING ALK5 MODULATION AGENTS” (ALCON RESEARCH, LTD., priority 2005, published 2012)
# B1: TGF-β2: transforming growth factor-beta isoform 2, a cytokine acting on ALK5 (Type 1 TGF-β receptor) (protein, UniProt P61812 303-414, looked up)
# Transforming growth factor …: ALDAAYCFRNVQDNCCLRPLYIDFKRDLGWKWIHEPKGYNANFCAGACPYLWSSDTQHSRVLSLYNTINPEASASPCCVSQDLEPLTILYYIGKTPKIEQLSNMIVKSCKCS
# Legend:
# [1] = system: GTM-3 transformed human TM cells; assay: TGF-β2-mediated fibronectin and PAI-1 in human TM cell culture supernatants, ELISA (FIG. 3); assay type: cell-based; conditions: human TM cell cultures, 24 h
# Description: (§1) Generation and characterization of the GTM-3 transformed cell line has been previously described (Pang et al., Curr Eye Res., 1994; Vol. 13:51-63). Briefly, maintenance growth medium consisted of Dulbecco's modified Eagle's medium with Glutamax I (Gibco/BRL, Grand Island, N.Y.) supplemented with 10% fetal bovine serum (Hyclone, Logan, Utah) and 50 μg/mL gentamicin (Gibco/BRL). For assay, cultures were trypsinized and seeded into 24-well plates (Corning Costar, Acton, Mass.) and allowed to grow until monolayers reached approximately 90% confluence. Culture medium was then replaced with 0.25 mL serum- and antibiotic-free medium containing the appropriate test compound(s). Cells were incubated 24 h, at 5% CO2 and 37° C. Aliquots of culture supernatants were then assayed for fibronectin and/or PAI-1 content by ELISA.
# [2] = system: GTM-3 transformed human TM cells; assay: Pro-collagen type I C-peptide (PIP) in human TM cell cultures, ELISA (FIG. 4); assay type: cell-based; conditions: 24 h
# Description: For this experiment, cultured transformed GTM-3 cells (Pang et al., Curr Eye Res., 1994; Vol. 13:51-63) were grown in a growth medium consisting of Dulbecco's modified Eagle's medium with Glutamax I (Gibco/Invitrogen, Grand Island, N.Y.) supplemented with 10% fetal bovine serum (Hyclone, Logan, Utah) and 50 μg/mL gentamicin (Gibco/Invitrogen). For assay, cultures were enzymatically-dissociated (TrypLE Express; Gibco/Invitrogen) then seeded into 24-well plates (Corning Costar, Acton, Mass.) and allowed to grow until monolayers reached approximately 90-95% confluence. Culture medium was then replaced with 0.25 mL serum- and antibiotic-free medium containing the appropriate test compound(s). Cells were incubated 24 h, at 5% CO2 and 37° C. Aliquots of culture supernatants were then assayed using an ELISA kit for procollagen Type I C-peptide (TaKaRa Bio, Shiga, Japan).
# Collagens are synthesized as pro-collagens, most of which contain additional peptide sequences called “propeptides”. Propeptides are located at both the N- and C-terminal ends of the molecules. These propeptides serve to facilitate formation of the mature collagen's triple helical structure from pro-collagens within the endoplasmic reticulum. […]
# [3] = system: TGF-β2-treated perfused human anterior segment model; assay: Perfusate fibronectin in TGF-β2-treated perfused human anterior segment model (FIG. 2); conditions: human anterior segments treated with TGF-β2 and compound vs TGF-β2 only
# Description: Human ocular perfusion organ culture was performed as described in available literature. [Tschumper et al., Curr Eye Res., 1990; Vol. 9:363-369; Clark et al., Invest Ophthalmol Vis Sci., 1995; Vol. 36:478-489; Pang et al., J Glaucoma, 2000; Vol. 9:468-479; Pang et al., Invest Ophthalmol Vis Sci., 2003; Vol. 44:3502-3510]. Briefly, anterior segments were dissected and mounted into custom Plexiglas culture chambers, then perfused with serum-free Dulbecco's modified Eagle's medium. IOP was monitored every 5 seconds and averaged each hour. Perfused tissue was allowed to equilibrate at 37° C. and 5% CO2 until a stable baseline IOP was achieved, typically 2-4 days; tissues with unstable IOP were discarded. Stable tissues were then further perfused with media containing the test compound(s) as indicated and changes in IOP were recorded. Eluate samples were collected daily for ELISA analysis of fibronectin and PAI-1 content. Tissues were fixed and evaluated for viability/morphology by light and electron microscopy at termination of each study. Data from unacceptable tissues were excluded from results. Criteria for “unacceptable” tissues included findings such as excess debris in the TM region, denudation of TM beams, loss of TM and/or Schlemm's canal cells, and breaks or collapse of Schlemm's canal. […]
# TGF-β Type II receptors = TGF-β Type II receptors (Homo sapiens, UniProt P37173); conditions: Brit J Pharmacol. 2005; 145:166-177; read-out: IC50, phosphorylation of TGF-β Type II receptors; cited from earlier work
# TGF-β Type II receptors, sequence (P37173 23-567): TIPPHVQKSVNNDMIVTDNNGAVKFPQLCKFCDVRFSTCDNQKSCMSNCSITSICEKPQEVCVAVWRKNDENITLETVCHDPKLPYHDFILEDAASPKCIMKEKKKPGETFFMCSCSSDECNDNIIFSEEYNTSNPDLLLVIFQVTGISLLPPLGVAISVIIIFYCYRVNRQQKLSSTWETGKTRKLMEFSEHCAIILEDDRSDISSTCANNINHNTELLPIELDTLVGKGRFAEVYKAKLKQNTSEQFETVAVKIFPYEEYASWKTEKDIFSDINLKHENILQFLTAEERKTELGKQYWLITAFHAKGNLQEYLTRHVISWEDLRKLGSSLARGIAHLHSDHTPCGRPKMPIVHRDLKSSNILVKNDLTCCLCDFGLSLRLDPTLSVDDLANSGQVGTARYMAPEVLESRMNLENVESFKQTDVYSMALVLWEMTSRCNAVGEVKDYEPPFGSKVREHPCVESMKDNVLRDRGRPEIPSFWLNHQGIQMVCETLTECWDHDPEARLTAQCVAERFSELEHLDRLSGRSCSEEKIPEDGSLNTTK
# p38 MAPK = p38 MAPK (Homo sapiens, UniProt Q16539); conditions: Brit J Pharmacol. 2005; 145:166-177; read-out: IC50, phosphorylation of p38 MAPK; cited from earlier work
# p38 MAPK, sequence (Q16539 whole entry): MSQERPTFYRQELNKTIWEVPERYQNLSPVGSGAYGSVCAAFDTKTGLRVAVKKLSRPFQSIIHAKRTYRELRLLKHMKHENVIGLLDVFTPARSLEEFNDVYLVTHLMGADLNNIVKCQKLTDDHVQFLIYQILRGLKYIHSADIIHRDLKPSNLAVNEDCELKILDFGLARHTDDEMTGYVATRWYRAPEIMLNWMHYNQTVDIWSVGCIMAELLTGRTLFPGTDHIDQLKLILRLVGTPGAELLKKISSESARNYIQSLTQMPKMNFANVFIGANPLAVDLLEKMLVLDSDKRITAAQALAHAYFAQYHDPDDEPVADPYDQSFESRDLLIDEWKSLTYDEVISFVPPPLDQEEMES
# ALK5 = molecular target: T1, ALK5 (Homo sapiens, UniProt P36897); conditions: Brit J Pharmacol. 2005; 145:166-177; read-out: IC50, inhibition of phosphorylation of ALK5; cited from earlier work
# T1 sequence (P36897 34-503): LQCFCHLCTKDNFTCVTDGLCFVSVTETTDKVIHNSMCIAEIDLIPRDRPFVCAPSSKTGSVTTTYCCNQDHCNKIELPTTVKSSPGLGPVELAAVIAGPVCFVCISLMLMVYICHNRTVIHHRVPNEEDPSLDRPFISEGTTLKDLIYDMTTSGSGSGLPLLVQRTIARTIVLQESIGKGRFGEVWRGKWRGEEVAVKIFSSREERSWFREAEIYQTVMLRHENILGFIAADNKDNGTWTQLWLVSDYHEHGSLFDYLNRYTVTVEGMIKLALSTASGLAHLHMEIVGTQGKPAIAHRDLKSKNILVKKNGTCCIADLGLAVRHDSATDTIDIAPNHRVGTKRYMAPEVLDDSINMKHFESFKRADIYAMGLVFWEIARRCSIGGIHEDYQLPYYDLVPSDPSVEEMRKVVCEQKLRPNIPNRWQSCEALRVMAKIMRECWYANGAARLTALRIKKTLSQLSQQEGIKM
# [4] = system: perfused human anterior segment model; assay: Perfused human anterior segment model, IOP (FIG. 1); conditions: TGF-β2 infused at 5 ng/mL
# Description: FIG. 1 is a graph showing the effect of infused TGF-β2 on a perfused human anterior segment model. All donor eyes used in this model were used according to the provisions of the Declaration of Helsinki for research involving human tissue, and were used within 24 hours post-mortem. No donors were known to have a history of glaucoma or other ocular disorder.
# Human ocular perfusion organ culture was performed as described in available literature. [Tschumper et al., Curr Eye Res., 1990; Vol. 9:363-369; Clark et al., Invest Ophthalmol Vis Sci., 1995; Vol. 36:478-489; Pang et al., J Glaucoma, 2000; Vol. 9:468-479; Pang et al., Invest Ophthalmol Vis Sci., 2003; Vol. 44:3502-3510]. Briefly, anterior segments were dissected and mounted into custom Plexiglas culture chambers, then perfused with serum-free Dulbecco's modified Eagle's medium. IOP was monitored every 5 seconds and averaged each hour. Perfused tissue was allowed to equilibrate at 37° C. and 5% CO2 until a stable baseline IOP was achieved, typically 2-4 days; tissues with unstable IOP were discarded. Stable tissues were then further perfused with media containing the test compound(s) as indicated and changes in IOP were recorded. Eluate samples were collected daily for ELISA analysis of fibronectin and PAI-1 content. Tissues were fixed and evaluated for viability/morphology by light and electron microscopy at termination of each study. […]
# GTM686-03 = assay: Effect of TGF-β2 on HTM cell secretion of fibronectin and PAI-1; assay type: cell-based, human; conditions: 24 hours
# Description: as §1
# (§2) TABLE 1, shown below, summarizes the results of a study measuring the effect of TGF-β2 on ECM-related protein levels (fibronectin, PAI-1) in cultured TM cells of various strains. TGF-β2 was present in the cultures at a concentration of 5 ng/mL, and protein levels (mean±s.e.m.) were measured after 24 hours.
# GTM-3 = assay: as above; assay type: cell-based, human; conditions: 24 hours
# Description: as §1, §2
# NTM974-03 = assay: as above; assay type: cell-based, human; conditions: 24 hours
# Description: as §1, §2
# GTM29-01 = assay: as above; assay type: cell-based, human; conditions: 24 hours
# Description: as §1, §2
# NTM553-02 = assay: as above; assay type: cell-based, human; conditions: 24 hours
# Description: as §1, §2
# SGTM2697 = assay: as above; assay type: cell-based, human; conditions: 24 hours
# Description: as §1, §2
# NTM35 = assay: as above; assay type: cell-based, human; conditions: 24 hours
# Description: as §1, §2
# GTM730-03 = assay: as above; assay type: cell-based, human; conditions: 24 hours
# Description: as §1, §2
# NTM875-03 = assay: as above; assay type: cell-based, human; conditions: 24 hours
# Description: as §1, §2
# SGTM1233-99 = assay: as above; assay type: cell-based, human; conditions: 24 hours
# Description: as §1, §2
# NTM25-91 = assay: as above; assay type: cell-based, human; conditions: 24 hours
# Description: as §1, §2
molecule,measurement,setting,value
c1ccc(-c2n[nH]cc2-c2ccnc3ccccc23)nc1 [Compound 2],Inhibition of TGF-β2-mediated increase in PAI-1 content in supernatants,[1],dose-dependent inhibition
same,Inhibition of TGF-β2-mediated increase in fibronectin content in supernatants,[1],dose-dependent inhibition
NC(=O)c1ccc(-c2nc(-c3ccc4c(c3)OCO4)c(-c3ccccn3)[nH]2)cc1 [Compound 1],TGF-β2-dependent PIP elevation,[2]; cultures treated with both TGF-β2 and compound,eliminated
same,TGF-β2-mediated increase in perfusate fibronectin content,[3],completely antagonized
same,Inhibition of TGF-β2-mediated increase in PAI-1 content in supernatants,[1],dose-dependent inhibition
same,Inhibition of TGF-β2-mediated increase in fibronectin content in supernatants,[1],dose-dependent inhibition
c1ccc(-c2cc(-c3cn[nH]c3-c3ccccn3)ccn2)cc1 [GW-6604],IC50,TGF-β Type II receptors,10 µM
same,IC50,p38 MAPK,9.5 µM
same,IC50,ALK5,~0.14 µM
B1,PIP levels compared to vehicle,"[2]; TGF-β2-treated cultures, both study replicates",greatly elevated
same,IOP relative to control,[4]; after 72 hours,almost double
same,IOP compared to control,[4]; within 24 hours,elevated IOP
same,Fibronectin Fold Increase,GTM686-03; TGF-β2 5 ng/mL vs control,126
same,PAI-1 Fold Increase,GTM686-03; TGF-β2 5 ng/mL vs control,2.5
same,Fibronectin,"GTM686-03; TGF-β2 5 ng/mL, mean±s.e.m.",25.2 ± 9.6 μg/well
same,PAI-1,"GTM686-03; TGF-β2 5 ng/mL, mean±s.e.m.",258.3 ± 28.1 ng/well
same,Fibronectin Fold Increase,GTM-3; TGF-β2 5 ng/mL vs control,5.4
same,PAI-1 Fold Increase,GTM-3; TGF-β2 5 ng/mL vs control,19.4
same,Fibronectin,"GTM-3; TGF-β2 5 ng/mL, mean±s.e.m.",16.7 ± 1^ μg/well
same,PAI-1,"GTM-3; TGF-β2 5 ng/mL, mean±s.e.m.",266 ± 8 ng/well
same,Fibronectin Fold Increase,NTM974-03; TGF-β2 5 ng/mL vs control,2.3
same,PAI-1 Fold Increase,NTM974-03; TGF-β2 5 ng/mL vs control,2.8
same,Fibronectin,"NTM974-03; TGF-β2 5 ng/mL, mean±s.e.m.",8.9 ± 1.5 μg/well
same,PAI-1,"NTM974-03; TGF-β2 5 ng/mL, mean±s.e.m.",297.7 ± 23.1 ng/well
same,Fibronectin Fold Increase,GTM29-01; TGF-β2 5 ng/mL vs control,9.4
same,PAI-1 Fold Increase,GTM29-01; TGF-β2 5 ng/mL vs control,3.9
same,Fibronectin,"GTM29-01; TGF-β2 5 ng/mL, mean±s.e.m.",9.4 ± 2.6 μg/well
same,PAI-1,"GTM29-01; TGF-β2 5 ng/mL, mean±s.e.m.",260.5 ± 13.6 ng/well
same,Fibronectin Fold Increase,NTM553-02; TGF-β2 5 ng/mL vs control,6.7
same,PAI-1 Fold Increase,NTM553-02; TGF-β2 5 ng/mL vs control,2.5
same,Fibronectin,"NTM553-02; TGF-β2 5 ng/mL, mean±s.e.m.",10.1 ± 1.1 μg/well
same,PAI-1,"NTM553-02; TGF-β2 5 ng/mL, mean±s.e.m.",315.9 ± 9.5 ng/well
same,Fibronectin Fold Increase,SGTM2697; TGF-β2 5 ng/mL vs control,2.4
same,Fibronectin,"SGTM2697; TGF-β2 5 ng/mL, mean±s.e.m.",19.5 ± 2^ μg/well
same,Fibronectin Fold Increase,NTM35; TGF-β2 5 ng/mL vs control,4.1
same,Fibronectin,"NTM35; TGF-β2 5 ng/mL, mean±s.e.m.",13 ± 2.7 μg/well
same,Fibronectin Fold Increase,GTM730-03; TGF-β2 5 ng/mL vs control,32.8
same,PAI-1 Fold Increase,GTM730-03; TGF-β2 5 ng/mL vs control,2.2
same,Fibronectin,"GTM730-03; TGF-β2 5 ng/mL, mean±s.e.m.",26.2 ± 1.6 μg/well
same,PAI-1,"GTM730-03; TGF-β2 5 ng/mL, mean±s.e.m.",268.8 ± 3.9 ng/well
same,Fibronectin Fold Increase,NTM875-03; TGF-β2 5 ng/mL vs control,19.2
same,PAI-1 Fold Increase,NTM875-03; TGF-β2 5 ng/mL vs control,2.6
same,Fibronectin,"NTM875-03; TGF-β2 5 ng/mL, mean±s.e.m.",9.6 ± 3.8 μg/well
same,PAI-1,"NTM875-03; TGF-β2 5 ng/mL, mean±s.e.m.",282.6 ± 11.6 ng/well
same,Fibronectin Fold Increase,SGTM1233-99; TGF-β2 5 ng/mL vs control,3.1
same,PAI-1 Fold Increase,SGTM1233-99; TGF-β2 5 ng/mL vs control,2.9
same,Fibronectin,"SGTM1233-99; TGF-β2 5 ng/mL, mean±s.e.m.",12.2 ± 2.1 μg/well
same,PAI-1,"SGTM1233-99; TGF-β2 5 ng/mL, mean±s.e.m.",256.5 ± 35.4 ng/well
same,Fibronectin Fold Increase,NTM25-91; TGF-β2 5 ng/mL vs control,6.2
same,Fibronectin,"NTM25-91; TGF-β2 5 ng/mL, mean±s.e.m.",19.3 ± 1.5 μg/well
